In PMC3061051 (Nucleic Acids Research, 2010):
Substitutions are numbered along the chain they refer to. In names and notes the source's numbering stands. Several values for one entry are separate records, joined by “and”; a condition that tells them apart may be missing. Identical values can stand only once.

What was measured:
[1] = molecular target: the molecule itself; test: AUC
[2] = molecular target: the molecule itself; test: SEC
[3] = molecular target: the molecule itself; test: AUC; remark: listed apart in the source
[4] = molecular target: RECQ1T1 (RECQ1 49-616) (human, UniProt P46063 49-616); test: EMSA
[5] = molecular target: W227A-F231A-RECQ1T1 (human, UniProt P46063 49-616, W227A;F231A); test: EMSA
[6] = molecular target: T1, Δ(F561-T562-T566)-RECQ1T1 (human, UniProt P46063 49-616, del561-562;del566-566); test: EMSA
T1 sequence: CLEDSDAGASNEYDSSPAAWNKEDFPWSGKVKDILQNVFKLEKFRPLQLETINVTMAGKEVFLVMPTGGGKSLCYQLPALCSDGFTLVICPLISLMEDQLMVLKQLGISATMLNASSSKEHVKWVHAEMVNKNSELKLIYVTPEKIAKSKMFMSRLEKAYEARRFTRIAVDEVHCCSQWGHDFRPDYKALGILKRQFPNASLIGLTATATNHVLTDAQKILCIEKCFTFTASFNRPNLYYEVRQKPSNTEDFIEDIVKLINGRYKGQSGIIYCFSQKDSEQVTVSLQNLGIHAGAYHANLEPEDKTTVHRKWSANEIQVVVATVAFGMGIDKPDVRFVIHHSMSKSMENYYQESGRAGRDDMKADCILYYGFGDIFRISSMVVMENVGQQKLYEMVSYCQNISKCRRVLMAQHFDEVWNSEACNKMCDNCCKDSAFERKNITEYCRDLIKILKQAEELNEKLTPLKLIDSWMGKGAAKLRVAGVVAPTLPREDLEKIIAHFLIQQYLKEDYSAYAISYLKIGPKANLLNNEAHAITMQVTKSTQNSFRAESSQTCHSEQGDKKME

[7] = molecular target: T2, Y559A-S560A-F561A-RECQ1T1 (human, UniProt P46063 49-616, Y559A;S560A;F561A); test: EMSA
T2 sequence: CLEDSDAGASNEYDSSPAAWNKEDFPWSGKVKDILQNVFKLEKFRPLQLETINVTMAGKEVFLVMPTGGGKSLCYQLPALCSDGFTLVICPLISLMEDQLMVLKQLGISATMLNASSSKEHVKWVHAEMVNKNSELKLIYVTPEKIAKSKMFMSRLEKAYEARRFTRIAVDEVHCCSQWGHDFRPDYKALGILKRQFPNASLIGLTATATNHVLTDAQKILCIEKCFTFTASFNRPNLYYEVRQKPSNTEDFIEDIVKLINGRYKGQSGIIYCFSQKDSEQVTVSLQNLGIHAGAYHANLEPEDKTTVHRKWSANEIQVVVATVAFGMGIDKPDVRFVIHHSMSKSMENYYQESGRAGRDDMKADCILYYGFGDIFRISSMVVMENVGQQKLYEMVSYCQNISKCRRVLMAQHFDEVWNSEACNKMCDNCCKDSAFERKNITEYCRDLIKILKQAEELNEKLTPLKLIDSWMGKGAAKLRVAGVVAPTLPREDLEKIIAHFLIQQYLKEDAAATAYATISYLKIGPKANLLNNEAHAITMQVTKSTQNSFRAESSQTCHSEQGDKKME

[8] = molecular target: T3, Y564A-RECQ1T1 (human, UniProt P46063 49-616, Y564A); test: EMSA
T3 sequence: T2 sequence with A511Y, A512S, A513F, Y516A

B1: RECQ1^49-616 (truncated catalytic core of human RECQ1 helicase) (domain or fragment, UniProt P46063 49-616, looked up)
chain: T2 sequence with A511Y, A512S, A513F
For B1, the “stoichiometry N” value [1] was 2.

B2: Y564A-RECQ1^T1 (domain or fragment, human, UniProt P46063 49-616, looked up)
chain: T2 sequence with A511Y, A512S, A513F, Y516A
With B2 the “stoichiometry N” value [2] was 2.

B3: W227A-F231A-RECQ1^T1 (domain or fragment, human, UniProt P46063 49-616, looked up)
chain: T2 sequence with W179A, F183A, A511Y, A512S, A513F
For B3, the “stoichiometry N” value [2] was 2.

B4: Full-length RECQ1 (RECQ1^FL) (natural protein, human, UniProt P46063 1-649, looked up)
chain: MASVSALTEELDSITSELHAVEIQIQELTERQQELIQKKKVLTKKIKQCLEDSDAGASNEYDSSPAAWNKEDFPWSGKVKDILQNVFKLEKFRPLQLETINVTMAGKEVFLVMPTGGGKSLCYQLPALCSDGFTLVICPLISLMEDQLMVLKQLGISATMLNASSSKEHVKWVHAEMVNKNSELKLIYVTPEKIAKSKMFMSRLEKAYEARRFTRIAVDEVHCCSQWGHDFRPDYKALGILKRQFPNASLIGLTATATNHVLTDAQKILCIEKCFTFTASFNRPNLYYEVRQKPSNTEDFIEDIVKLINGRYKGQSGIIYCFSQKDSEQVTVSLQNLGIHAGAYHANLEPEDKTTVHRKWSANEIQVVVATVAFGMGIDKPDVRFVIHHSMSKSMENYYQESGRAGRDDMKADCILYYGFGDIFRISSMVVMENVGQQKLYEMVSYCQNISKCRRVLMAQHFDEVWNSEACNKMCDNCCKDSAFERKNITEYCRDLIKILKQAEELNEKLTPLKLIDSWMGKGAAKLRVAGVVAPTLPREDLEKIIAHFLIQQYLKEDYSFTAYATISYLKIGPKANLLNNEAHAITMQVTKSTQNSFRAESSQTCHSEQGDKKMEEKNSGNFQKKAANMLQQSGSKNTGAKKRKIDDA
B4 was tested, and the “stoichiometry N” value [3] was 4 and 2.

B5: Y564A-RECQ1^FL (natural protein, human, UniProt P46063 1-649, looked up)
chain: B4 chain with Y564A
In the case of B5, the “stoichiometry N” value [3] is reported as 2 and 4.

B6: Δ8-Y564A-RECQ1^FL (natural protein, human, UniProt P46063 1-649, looked up)
chain: MASVSALTEELDSITSELHAVEIQIQELTERQQELIQKKKVLTKKIKQCLEDSDAGASNEYDSSPAAWNKEDFPWSGKVKDILQNVFKLEKFRPLQLETINVTMAGKEVFLVMPTGGGKSLCYQLPALCSDGFTLVICPLISLMEDQLMVLKQLGISATMLNASSSKEHVKWVHAEMVNKNSELKLIYVTPEKIAKSKMFMSRLEKAYEARRFTRIAVDEVHCCSQWGHDFRPDYKALGILKRQFPNASLIGLTATATNHVLTDAQKILCIEKCFTFTASFNRPNLYYEVRQKPSNTEDFIEDIVKLINGRYKGQSGIIYCFSQKDSEQVTVSLQNLGIHAGAYHANLEPEDKTTVHRKWSANEIQVVVATVAFGMGIDKPDVRFVIHHSMSKSMENYYQESGRAGRDDMKADCILYYGFGDIFRISSMVVMENVGQQKLYEMVSYCQNISKCRRVLMAQHFDEVWNSEACNKMCDNCCKDSAFERKNITEYCRDLIKILKQAEELNEKLTPLKLIDSWMGKGAAKLRVAGVVAPTLPREDLEKIIAHFLIQQYAAGPKANLLNNEAHAITMQVTKSTQNSFRAESSQTCHSEQGDKKMEEKNSGNFQKKAANMLQQSGSKNTGAKKRKIDDA
In the case of B6, the “stoichiometry N” value [3] is reported as 2.

B7: Fork 20 duplex (dsDNA)
DNA 1: GAACGAACACATCGGGTACGTTTTTTTTTTTTTTTTTTTTTTTTTTTTTT
DNA 2: TTTTTTTTTTTTTTTTTTTTTTTTTTTTTTCGTACCCGATGTGTTCGTTC
For B7, the Kd [4] was 8 ± 2 nM and the Kd [5] was 10 ± 2 nM.

B8: X12 Holliday junction (structured_DNA)
DNA 1: GACGCTGCCGAATTCTGGCTTGCTAGGACATCTTTGCCCACGTTGACCCG
DNA 2: CGGGTCAACGTGGGCAAAGATGTCCTAGCAATGTAATCGTCTATGACGTC
DNA 3: GACGTCATAGACGATTACATTGCTAGGACATGCTGTCTAGAGACTATCGC
DNA 4: GCGATAGTCTCTAGACAGCATGTCCTAGCAAGCCAGAATTCGGCAGCGTC
B8: no binding [6]; no binding [7]; no binding [4]. B8: no binding [8]; no binding [5].
